US20130251640A1 (METHODIST HOSPITAL SYSTEM, published 2013)
Non-standard residues stand in square brackets, D forms with d. *: point of attachment. Dnp = O=[N+]([O-])c1ccc(*)c([N+](=O)[O-])c1; Mca = COc1ccc2c(CC(=O)*)cc(=O)oc2c1

Tests used:
Experiment in all cases: cell-based or functional assay
[1] = target: T1, Cathepsin E (purchased from Calbiochem, EMD Bioscience)
T1 sequence (P14091 whole entry, species assumed, looked up): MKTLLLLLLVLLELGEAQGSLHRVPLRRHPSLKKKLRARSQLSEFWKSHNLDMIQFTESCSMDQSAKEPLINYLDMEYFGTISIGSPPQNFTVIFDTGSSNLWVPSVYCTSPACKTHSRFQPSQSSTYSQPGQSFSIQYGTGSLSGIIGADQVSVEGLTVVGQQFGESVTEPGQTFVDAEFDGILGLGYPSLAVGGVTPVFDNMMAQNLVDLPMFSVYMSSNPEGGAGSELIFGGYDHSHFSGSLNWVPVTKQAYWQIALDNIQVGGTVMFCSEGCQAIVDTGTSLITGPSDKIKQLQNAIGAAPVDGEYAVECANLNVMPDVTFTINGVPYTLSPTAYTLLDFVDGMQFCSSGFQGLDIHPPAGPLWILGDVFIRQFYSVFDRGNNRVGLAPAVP

[2] = target: Cathepsin S (purchased from Calbiochem, EMD Bioscience)
[3] = target: Cathepsin B (purchased from Calbiochem, EMD Bioscience)

B1: substrate b, Mca-Gly-Pro-Ile-Leu-Phe**Phe-Arg-Leu-Gly-Lys(Dnp)-DArg-CONH2 (peptide)
peptide: Mca-GPILFFRLGK(Dnp)[dR]-NH2
SMILES: CC[C@H](C)[C@H](NC(=O)[C@@H]1CCCN1C(=O)CNC(=O)Cc1cc(=O)oc2cc(OC)ccc12)C(=O)N[C@@H](CC(C)C)C(=O)N[C@@H](Cc1ccccc1)C(=O)N[C@@H](Cc1ccccc1)C(=O)N[C@@H](CCCNC(=N)N)C(=O)N[C@@H](CC(C)C)C(=O)NCC(=O)N[C@@H](CCCCNc1ccc([N+](=O)[O-])cc1[N+](=O)[O-])C(=O)N[C@H](CCCNC(=N)N)C(N)=O
B1 was tested, and the “net fluorescence signal ratio (Cath E/Cath D) immediately after incubation” value [1] was 1.6 fold.

B2: substrate e, Mca-Ala-Gly-Phe-Ser-Leu**Pro-Ala-Lys(Dnp)-D-Arg-CONH2 (peptide)
peptide: Mca-AGFSLPAK(Dnp)[dR]-NH2
SMILES: COc1ccc2c(CC(=O)N[C@@H](C)C(=O)NCC(=O)N[C@@H](Cc3ccccc3)C(=O)N[C@@H](CO)C(=O)N[C@@H](CC(C)C)C(=O)N3CCC[C@H]3C(=O)N[C@@H](C)C(=O)N[C@@H](CCCCNc3ccc([N+](=O)[O-])cc3[N+](=O)[O-])C(=O)N[C@H](CCCNC(=N)N)C(N)=O)cc(=O)oc2c1
In the case of B2, the “fluorescence signal increase relative to that observed with Cath E, 90 minutes” value [2] is reported as under 15%, the “net fluorescence signal ratio (Cath E/Cath D) at 1 minute” value [1] is reported as 265 fold and the “fluorescence signal increase relative to that observed with Cath E, 90 minutes” value [3] is reported as under 15%.

B3: substrate c, Mca-Gly-Pro-Ile-Leu-Phe**Phe-Arg-Leu-Lys(Dnp)-DArg-CONH2 (peptide)
peptide: Mca-GPILFFRLK(Dnp)[dR]-NH2
SMILES: CC[C@H](C)[C@H](NC(=O)[C@@H]1CCCN1C(=O)CNC(=O)Cc1cc(=O)oc2cc(OC)ccc12)C(=O)N[C@@H](CC(C)C)C(=O)N[C@@H](Cc1ccccc1)C(=O)N[C@@H](Cc1ccccc1)C(=O)N[C@@H](CCCNC(=N)N)C(=O)N[C@@H](CC(C)C)C(=O)N[C@@H](CCCCNc1ccc([N+](=O)[O-])cc1[N+](=O)[O-])C(=O)N[C@H](CCCNC(=N)N)C(N)=O
In the case of B3, the “net fluorescence signal ratio (Cath E/Cath D) immediately after incubation” value [1] is reported as 1.5 fold.

B4: substrate a, Mca-Gly-Ser-Pro-Ala-Phe**Leu-Ala-Lys(Dnp)-DArg-CONH2 (peptide)
peptide: Mca-GSPAFLAK(Dnp)[dR]-NH2
SMILES: COc1ccc2c(CC(=O)NCC(=O)N[C@@H](CO)C(=O)N3CCC[C@H]3C(=O)N[C@@H](C)C(=O)N[C@@H](Cc3ccccc3)C(=O)N[C@@H](CC(C)C)C(=O)N[C@@H](C)C(=O)N[C@@H](CCCCNc3ccc([N+](=O)[O-])cc3[N+](=O)[O-])C(=O)N[C@H](CCCNC(=N)N)C(N)=O)cc(=O)oc2c1
With B4 the “net fluorescence signal ratio (Cath E/Cath D) at 10 minutes” value [1] was 4.5 fold, the “net fluorescence signal ratio (Cath E/Cath D) at 45 minutes” value [1] was 1.6 fold and the “net fluorescence signal ratio (Cath E/Cath D) at the initial time point” value [1] was 17.9 fold.

B5: substrate d, Mca-Ala-Gly-Phe-Ser-Leu**Gly-Pro-Lys(Dnp)-DArg-CONH2 (peptide)
peptide: Mca-AGFSLGPK(Dnp)[dR]-NH2
SMILES: COc1ccc2c(CC(=O)N[C@@H](C)C(=O)NCC(=O)N[C@@H](Cc3ccccc3)C(=O)N[C@@H](CO)C(=O)N[C@@H](CC(C)C)C(=O)NCC(=O)N3CCC[C@H]3C(=O)N[C@@H](CCCCNc3ccc([N+](=O)[O-])cc3[N+](=O)[O-])C(=O)N[C@H](CCCNC(=N)N)C(N)=O)cc(=O)oc2c1
For B5, the “net fluorescence signal ratio (Cath E/Cath D) at 10 minutes” value [1] was 4 fold, the “net fluorescence signal ratio (Cath E/Cath D) at 45 minutes” value [1] was 2.3 fold and the “net fluorescence signal ratio (Cath E/Cath D) at the initial time point” value [1] was 12 fold.
